{
  "source": "patent US20140249052A1",
  "about": "(University of Washington, published 2014)",
  "binders": {"B1": {"name": "Bio-GrBP5 (biotin-graphite binding peptide fusion, Bio-IMVTESSDYSSY) (peptide)", "peptide": "IMVTESSDYSSY", "HELM": "PEPTIDE1{[O=C1N[C@H]2[C@H](CS[C@H]2CCCCC(=O)[*:2])N1].I.M.V.T.E.S.S.D.Y.S.S.Y}$$$$V2.0", "SMILES": "CC[C@H](C)[C@H](NC(=O)CCCC[C@@H]1SC[C@@H]2NC(=O)N[C@@H]21)C(=O)N[C@@H](CCSC)C(=O)N[C@H](C(=O)N[C@H](C(=O)N[C@@H](CCC(=O)O)C(=O)N[C@@H](CO)C(=O)N[C@@H](CO)C(=O)N[C@@H](CC(=O)O)C(=O)N[C@@H](Cc1ccc(O)cc1)C(=O)N[C@@H](CO)C(=O)N[C@@H](CO)C(=O)N[C@@H](Cc1ccc(O)cc1)C(=O)O)[C@@H](C)O)C(C)C", "notes": "Synthetic 12-mer with N-terminal biotin; In the assays it was self-assembled on graphite (nanowires or monolayer) or on a graphene FET sensor; also called biotinilated peptide; bio-GrBP5 peptide nanowires"}},
  "biological_target": "T1, streptavidin (from Streptomyces avidinii, 50677, Sigma-Aldrich) (Streptomyces avidinii, UniProt P22629 37-163, limits assumed)",
  "T1 construct": "Commercial protein used as received",
  "T1 sequence (P22629 37-163 limits assumed)": "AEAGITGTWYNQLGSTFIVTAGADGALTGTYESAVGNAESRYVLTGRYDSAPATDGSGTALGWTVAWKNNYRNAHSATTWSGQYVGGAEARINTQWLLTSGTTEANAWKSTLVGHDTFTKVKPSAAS",
  "assay": "graphene FET sensor, Langmuir fit of response against concentration; mixed monolayer (25% bio-GrBP5, 75% SS-GrBP5) washed before SA was added, BSA background",
  "experimental": "A 20 μl drop of water was placed on the sensor and the resistance was allowed to equilibrate. The device was maintained in a hydration chamber at 100% humidity to prevent evaporation. Analyte was added to the static drop on the sensor in the appropriate concentrations, so that the total volume of the drop never exceeded 35μl. Data was collected from two distinct devices and each experiment was reproduced at least once. See supporting information for additional data.\nBy combining the anti-fouling properties of SS-GrBP5 with the biotinylated probe peptide, we created a sensor capable of selective detection of streptavidin in a bovine serum albumin solution. A mixed peptide monolayer consisting of 25% bio-GrBP5 and 75% SS-GrBP5 was formed in a single step from a solution with an overall concentration of 10 μg/ml. […] Guided by the results in FIG. 21, we introduced 5 μg/ml BSA to the sensor and detected no binding (FIG. 22C). We then introduced sequentially increasing concentrations of SA to the sensor, while maintaining the levels of BSA, and were able to reliably detect streptavidin at 100 ng/ml, although some signal was present at even lower concentrations (FIG. 22C). […] The overall stability of the bio-GrBP5 appears to have been improved by co-assembly with SS-GrBP5, displaying very high coverage and density. […]",
  "data": [
    {"binder": "B1", "values": [
      {"measurement": "Kd", "result": "~1.5", "unit": "nM"}
    ]}
  ]
}
